Experimental data: article PMC8809517, “Cofactor-independent RNA editing by a synthetic S-type PPR protein”
Where a chain is given by its changes, count along the chain named.

T1: GFP-9S library array, motif 4 ND N98T;D124C (synthetic construct, N98T;D124C)
T1 chain: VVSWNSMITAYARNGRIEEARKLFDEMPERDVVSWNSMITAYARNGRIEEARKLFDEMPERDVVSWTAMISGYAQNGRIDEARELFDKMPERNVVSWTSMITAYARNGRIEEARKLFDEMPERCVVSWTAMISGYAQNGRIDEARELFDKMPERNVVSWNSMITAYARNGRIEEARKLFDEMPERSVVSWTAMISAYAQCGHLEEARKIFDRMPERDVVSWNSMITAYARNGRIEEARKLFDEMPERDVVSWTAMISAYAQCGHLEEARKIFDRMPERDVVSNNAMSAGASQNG

T2: GFP-9S library array, motif 4 ND N98S;D124I (synthetic construct, N98S;D124I)
T2 chain: T1 chain with T98S, C124I

T3: GFP-9S library array, motif 4 ND N98Y;D124K (synthetic construct, N98Y;D124K)
T3 chain: T1 chain with T98Y, C124K

T4: GFP-9S library array, motif 4 ND N98W;D124V (synthetic construct, N98W;D124V)
T4 chain: T1 chain with T98W, C124V

T5: GFP-9S library array, motif 4 ND N98H;D124G (synthetic construct, N98H;D124G)
T5 chain: T1 chain with T98H, C124G

B1: IR-rpoA-U (ssRNA)
RNA: AUUAUACGUGA
B2: IR-rpoA-A (ssRNA)
RNA: AUUAAACGUGA
B3: Cy5-rpoA-G (ssRNA)
RNA: AUUAGACGUGA
B4: Cy5-rpoA (ssRNA)
RNA: AUUACACGUGA

Tests used:
Experiment in all cases: high-throughput RNA pulldown from lysate on Ni-NTA beads; HRP: 50 mM Tris pH 8, 150 mM NaCl, 1 mM beta-mercaptoethanol, 50 ug/ml BSA, 3 ug/ml yeast RNA, 0.5% heparin; ITC and FP: Tris pH 8, 200 mM KCl, 5% glycerol; MST: 50 mM Tris pH 8, 200 mM NaCl, 1 mM DTT, BSA, heparin, 0.05% Tween 20
Details in all cases: tags: N-terminal His-eGFP
[1] = biological target: T1, GFP-9S library array, motif 4 ND …
[2] = biological target: T2, GFP-9S library array, motif 4 ND …
[3] = biological target: T3, GFP-9S library array, motif 4 ND …
[4] = biological target: T4, GFP-9S library array, motif 4 ND …
[5] = biological target: T5, GFP-9S library array, motif 4 ND …

| Binder | Kd ([1]; label: 5' IRDye 800CW) | Kd ([2]; label: 5' IRDye 800CW) | Kd ([3]; label: 5' IRDye 800CW) | Kd ([4]; label: 5' IRDye 800CW) | Kd ([5]; label: 5' IRDye 800CW) | Kd ([1]; label: 5' Cy5) | Kd ([2]; label: 5' Cy5) | Kd ([3]; label: 5' Cy5) | Kd ([4]; label: 5' Cy5) | Kd ([5]; label: 5' Cy5) |
| --- | --- | --- | --- | --- | --- | --- | --- | --- | --- | --- |
| B1 | 0.119 µM | 0.152 µM | 0.227 µM | 0.1 µM | 0.0387 µM |  |  |  |  |  |
| B2 | 0.0886 µM | 0.113 µM | 0.207 µM | 0.0956 µM | 0.0613 µM |  |  |  |  |  |
| B3 |  |  |  |  |  | 0.0081 µM | 0.0714 µM | 0.097 µM | 0.0508 µM | 0.0371 µM |
| B4 |  |  |  |  |  | 0.33 µM | 0.0747 µM | 0.0933 µM | 0.0411 µM | 0.101 µM |
